We go through 3 substances from PMC5207708.

For one test, the target named is MIER3 isoform 1 (UniProt Q7Z3K6). As to the kind of experiment: co-IP; HEK293 cells transfected with the myc-tagged protein; lysis in 1% Triton X-100, 150 mM NaCl, 20 mM Tris-Cl pH 7.5, 1 mM EDTA; IP with 9E10 anti-myc overnight at 4°C; endogenous HDAC1 and HDAC2 by Western; band densitometry (HDAC:MIER ratio); also with or without 12.5 μM Ins(1,4,5,6)P4 during the IP (no substantial difference).

For another test, the target named is MIER2 (UniProt Q8N344). The test is described as above.
UniProt Q8N344, sequence (Q8N344 whole entry): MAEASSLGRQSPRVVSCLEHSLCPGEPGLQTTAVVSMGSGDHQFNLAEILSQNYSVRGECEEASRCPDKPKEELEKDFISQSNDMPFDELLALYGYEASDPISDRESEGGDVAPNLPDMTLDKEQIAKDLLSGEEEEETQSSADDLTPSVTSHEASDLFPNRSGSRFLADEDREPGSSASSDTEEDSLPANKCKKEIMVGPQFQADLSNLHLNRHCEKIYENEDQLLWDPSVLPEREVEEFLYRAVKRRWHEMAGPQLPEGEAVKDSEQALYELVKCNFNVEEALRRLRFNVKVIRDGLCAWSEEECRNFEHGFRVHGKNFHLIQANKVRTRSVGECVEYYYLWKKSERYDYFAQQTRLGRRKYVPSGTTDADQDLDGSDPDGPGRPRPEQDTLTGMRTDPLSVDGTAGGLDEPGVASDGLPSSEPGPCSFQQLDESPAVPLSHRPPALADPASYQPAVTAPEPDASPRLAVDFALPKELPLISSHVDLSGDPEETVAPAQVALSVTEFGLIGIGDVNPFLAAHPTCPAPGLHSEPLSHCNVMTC

UniProt Q7Z3K6, sequence (Q7Z3K6 whole entry, canonical isoform): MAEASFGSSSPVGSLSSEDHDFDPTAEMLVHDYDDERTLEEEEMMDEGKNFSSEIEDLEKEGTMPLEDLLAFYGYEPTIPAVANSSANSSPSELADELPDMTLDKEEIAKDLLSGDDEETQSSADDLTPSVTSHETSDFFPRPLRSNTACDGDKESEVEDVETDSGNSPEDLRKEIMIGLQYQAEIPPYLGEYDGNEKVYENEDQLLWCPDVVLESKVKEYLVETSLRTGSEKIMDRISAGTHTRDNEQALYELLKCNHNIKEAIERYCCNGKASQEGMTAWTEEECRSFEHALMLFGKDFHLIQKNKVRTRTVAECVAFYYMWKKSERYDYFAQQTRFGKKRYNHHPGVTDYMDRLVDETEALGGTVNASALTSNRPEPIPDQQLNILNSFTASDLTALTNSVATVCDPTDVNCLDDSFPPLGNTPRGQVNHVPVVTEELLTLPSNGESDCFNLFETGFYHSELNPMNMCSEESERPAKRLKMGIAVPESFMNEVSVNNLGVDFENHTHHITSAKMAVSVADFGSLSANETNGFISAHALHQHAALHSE

For “HDAC1 (from UniProt Q13547 1-482) (HEK293 cells)”, the HDAC:MIER ratio in the immunoprecipitate, percent of that in the MIER1α complex in the test with MIER3 isoform 1 was found to be 9%. On to HDAC2 (from UniProt Q92769 1-488), for which the HDAC:MIER ratio in the immunoprecipitate, percent of that in the MIER1α complex with MIER3 isoform 1 was determined as 9%. Regarding “HDAC2 (from UniProt Q92769 1-488) (enzyme)”, the HDAC:MIER ratio in the immunoprecipitate, percent of that in the MIER1α complex with MIER2 came out at 20%.
